For data set [1], the target named is T1, GST-ITK/KD/G354/F437Y (ITK F437Y) (Homo sapiens, UniProt Q08881, F437Y).
T1 construct: made in house; host or cells: Spodoptera frugiperda Sf21 cells, baculovirus
Kind of data set: Tec Family Kinase Assay (DELFIA), F437Y mutant ITK kinase domain. The format is biochemical. To be noted: for IC50: GST-ITK/KD/G354/F437Y mutant; for Fold Difference in IC50: ITK F437Y IC50 versus wild-type ITK IC50.

Data set [2] concerns the target T2, GST-ITK/KD/G354 (wild-type ITK kinase domain) (Homo sapiens, UniProt Q08881).
T2 construct: made in house; host or cells: Spodoptera frugiperda Sf21 cells, baculovirus
As to the kind of experiment: Tec Family Kinase Assay (DELFIA), wild-type ITK kinase domain. To be noted: 15 μM ATP substrate mix. The format is biochemical.

The nature of data set [3]: Thermal denaturation of ITK constructs (circular dichroism-monitored). The format is physicochemical. Conditions: for Tm: 5 μM construct, pH 7.0 buffer, 230 nm, 2 to 100° C. at 0.2° C./min; for Tm comparison (in words): thermal denaturation studies. On the procedure: Thermal denaturation experiments were performed on a Jasco J-720 spectropolarimeter equipped with a Peltier thermostatic cell holder. For each measurement, a 1 cm quartz cuvette was loaded with 5 μM ITK kinase domain construct in a pH 7.0 buffer containing 10 mM sodium phosphate, 100 mM NaCl and 1 mM TCEP. Absorbance data at 230 nm was collected as the temperature was scanned from 2 to 100° C. at a ramp rate of 0.2° C./min. The melting temperature (Tm) for each sample was calculated as the maximum deflection point of the first derivative of the melting transition using Origin (version 7.0).
(§1) A significant obstacle in the process of obtaining the 3-dimensional structure of a protein by X-ray crystallography is the identification of a protein fragment that is amenable to the formation of protein crystals of suitable quality. Since kinases often have multiple domains, one strategy that increases the likelihood of generating protein crystals of the kinase domain (catalytic) fragment has been to delete the other domains. Furthermore, by making a kinase domain fragment analogous to that of a related kinase for which a crystal structure has been determined, one may further increase the probability of generating suitable protein crystals. Using these concepts, the human ITK/KD/Q343 construct was generated. Theory predicts that a more compactly folded protein has a greater probability of producing high quality protein crystals. Therefore, the human ITK/KD/Q343 construct was subjected to limited proteolysis with trypsin to identify any fragments of the construct that are easily accessible to the protease and are thus likely to be less compactly folded. Using this strategy, the human ITK/KD/G354 and ITK/KD/S361 constructs were designed. To prioritize the three human ITK kinase domain protein fragments for crystallization trials, each was assayed for catalytic activity and for structural foldedness by circular dichroism-monitored thermal denaturation. […] Consequently, the ITK/KD/G354 construct was prioritized for structural studies since it was catalytically active and predicted to be tightly folded. To further increase the probability of obtaining suitable crystals, a murine construct (ITK/KD/G353) analogous to the human ITK/KD/G354 construct was generated. This murine ITK kinase domain construct has 3 conservative and 7 non-conservative amino acid substitutions when compared with the human ITK/KD/G354 construct which may alter the conformation or surface properties of the protein thus providing alternative opportunities for crystal formation.
On the technique in general: Circular dichroism is the unequal absorption of left and right circularly polarised light.

Another data set deals with poly Glu4: Tyr1 (PGTYR). Kind of data set: Catalytic activity of ITK kinase domain constructs (kinase assay). Conditions: for Kinase Activity: Using 250 nM enzyme; for catalytic activity (in words): human ITK kinase domain fragments. The format is biochemical. On the procedure: ITK is purified as a GST-fusion protein to test for catalytic activity. The kinase activity is measured using DELFIA (Dissociation Enhanced Lanthanide Fluoroimmunoassay) which utilizes europium chelate-labeled anti-phosphotyrosine antibodies to detect phosphate transfer to a random polymer, poly Glu4: Tyr1 (PGTYR). The screen utilizes the Zymark Allegro UHTS system to dispense reagents, buffers and samples for assay, and also to wash plates. The kinase assay is performed in kinase assay buffer (50 mM HEPES, pH 7.0, 25 mM MgCl2, 5 mM MnCl2, 50 mM KCl, 100 μM Na3VO4, 0.2% BSA, 0.01% CHAPS, 200 μM TCEP). Test samples initially dissolved in DMSO at 1 mg/mL, are pre-diluted for dose response (9 doses with starting final concentration of 3 μg/mL, 1 to 3 serial dilutions) with the assay buffer in 384-well polypropylene microtiter plates. […] Background wells are incubated with buffer, rather than 20 μL enzyme. The assay plates are incubated for 30 min at room temperature. Following incubation, the assay plates are washed three times with 100 μL wash buffer (50 mM Tris-HCL, pH 7.4, 150 mM NaCl, 0.05% Tween 20, 0.2% BSA). A 50 μL aliquot of europium-labeled anti-phosphotyrosine (Eu^3+-PT66, Wallac CR04-100) diluted in 50 mM Tris-HCl, pH 7.8, 150 mM NaCl, 10 μM DTPA, 0.05% Tween 40, 0.2% BSA, 0.05% BGG (1 nM final concentration) is added to each well and incubated for 30 min at room temperature. Upon completion of the incubation, the plate is washed four times with 100 μL of wash buffer and 50 μL of DELFIA Enhancement Solution (Wallac) is added to each well. After 15 min, time-resolved fluorescence is measured on the LJL's Analyst (excitation at 360 nm, emission at 620 nm, EU 400 Dichroic Mirror) after a delay time of 250 μs. An IC50 can be obtained by fitting the rates vs. compound/ligand concentration data into a simple competitive inhibitor model. Under these assay conditions, a 3-fold difference in compound potency (IC50) is considered within the variation of the assay. Preferred ligands will have an IC50<1000 nM.
as §1, with “This murine ITK kinase domain construct has 3 conservative and 7 non-conservative amino acid substitutions when compared with the human ITK/KD/G354 construct which may alter the conformation or surface properties of the protein thus providing alternative opportunities for crystal formation.” left out

One may read the IC50 as the concentration needed to halve the response being measured. The low end stands for higher potency, the high end for lower potency. Usually Tm stands for the temperature at the midpoint of the melting transition.

T2 sequence (Q08881 with tags, fused parts or gaps): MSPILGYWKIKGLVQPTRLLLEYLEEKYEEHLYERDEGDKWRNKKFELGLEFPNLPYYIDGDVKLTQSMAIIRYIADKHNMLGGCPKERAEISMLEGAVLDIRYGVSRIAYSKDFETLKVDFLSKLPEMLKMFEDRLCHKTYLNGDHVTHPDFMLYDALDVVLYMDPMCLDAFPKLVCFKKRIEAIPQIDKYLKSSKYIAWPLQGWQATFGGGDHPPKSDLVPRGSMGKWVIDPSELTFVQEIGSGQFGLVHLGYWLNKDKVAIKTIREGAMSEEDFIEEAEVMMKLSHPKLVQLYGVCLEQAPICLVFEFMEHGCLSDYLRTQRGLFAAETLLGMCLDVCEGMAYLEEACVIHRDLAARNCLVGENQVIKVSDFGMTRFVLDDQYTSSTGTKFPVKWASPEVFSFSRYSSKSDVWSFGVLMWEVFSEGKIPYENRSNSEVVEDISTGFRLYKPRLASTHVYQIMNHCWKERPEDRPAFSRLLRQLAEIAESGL
T1 sequence (Q08881 with tags, fused parts or gaps F437Y): as the sequence (Q08881 with tags, fused parts or gaps) above, with F311Y counted along it

On to `CN(C(=O)C1CCCCC1)c1ccc2c(c1)nc(NC(=O)c1ccc(C#N)cc1)n2CCCN1CCCC1=O` [Compound 7], for which, in data set [1], it took 160 nM to reach half-maximal inhibition (IC50) and the “Fold Difference in IC50” value is listed as 10.7. The molecule also had an IC50 in data set [2] of 15 nM.

For `Cc1ccc2c(c1)nc(NC(=O)c1ccc(C#N)cc1)n2CCC(N)=O` [Compound 3], in data set [1], half-maximal inhibition (IC50) was put at 500 nM and the “Fold Difference in IC50” value was determined as 1.1. Also, inhibition in data set [2] was half-maximal at 440 nM (IC50).

`CNc1ccc2c(c1)nc(NC(=O)c1ccc(C#N)cc1)n2CCC(N)=O` [Compound 1]: in data set [1], the IC50 came out at 1200 nM and the “Fold Difference in IC50” value was found to be 2.6. The IC50 in data set [2] came out at 460 nM.

B1: ITK/KD/Q343: human ITK kinase domain fragment comprising ITK residues 343-620 (SEQ ID NO. 9) (protein, listed as Homo sapiens)
chain: GSMQKAPVTAGLRYGKWVIDPSELTFVQEIGSGQFGLVHLGYWLNKDKVAIKTIREGAMSEEDFIEEAEVMMKLSHPKLVQLYGVCLEQAPICLVFEFMEHGCLSDYLRTQRGLFAAETLLGMCLDVCEGMAYLEEACVIHRDLAARNCLVGENQVIKVSDFGMTRFVLDDQYTSSTGTKFPVKWASPEVFSFSRYSSKSDVWSFGVLMWEVFSEGKIPYENRSNSEVVEDISTGFRLYKPRLASTHVYQIMNHCWKERPEDRPAFSRLLRQLAEIAESGL
With B1, the Tm in data set [3] was found to be 50.0 °C. In addition, in the data set on poly Glu4: Tyr1 (PGTYR), the “Kinase Activity” value amounted to 2000 Fluorescent Units and the “catalytic activity (in words)” value was “showed significant catalytic activity”.

B2: ITK/KD/G354: human ITK kinase domain fragment comprising ITK residues 354-620 (SEQ ID NO. 1) (protein, listed as Homo sapiens)
chain: GSMGKWVIDPSELTFVQEIGSGQFGLVHLGYWLNKDKVAIKTIREGAMSEEDFIEEAEVMMKLSHPKLVQLYGVCLEQAPICLVFEFMEHGCLSDYLRTQRGLFAAETLLGMCLDVCEGMAYLEEACVIHRDLAARNCLVGENQVIKVSDFGMTRFVLDDQYTSSTGTKFPVKWASPEVFSFSRYSSKSDVWSFGVLMWEVFSEGKIPYENRSNSEVVEDISTGFRLYKPRLASTHVYQIMNHCWKERPEDRPAFSRLLRQLAEIAESGL
For the molecule B2, in data set [3], the Tm turned out to be 67.2 °C and the “Tm comparison (in words)” value was “higher Tm than ITK/KD/Q343”. Moreover, in the data set on poly Glu4: Tyr1 (PGTYR), the “Kinase Activity” value came out at 910 Fluorescent Units and the “catalytic activity (in words)” value is reported as “showed significant catalytic activity”.

B3: ITK/KD/S361: human ITK kinase domain fragment comprising ITK residues 361-620 (SEQ ID NO. 12) (protein, listed as Homo sapiens)
chain: GSMSELTFVQEIGSGQFGLVHLGYWLNKDKVAIKTIREGAMSEEDFIEEAEVMMKLSHPKLVQLYGVCLEQAPICLVFEFMEHGCLSDYLRTQRGLFAAETLLGMCLDVCEGMAYLEEACVIHRDLAARNCLVGENQVIKVSDFGMTRFVLDDQYTSSTGTKFPVKWASPEVFSFSRYSSKSDVWSFGVLMWEVFSEGKIPYENRSNSEVVEDISTGFRLYKPRLASTHVYQIMNHCWKERPEDRPAFSRLLRQLAEIAESGL
B3: in data set [3], the Tm is 72.8 °C and the “Tm comparison (in words)” value is listed as “highest Tm”. In addition, in the data set on poly Glu4: Tyr1 (PGTYR), the “Kinase Activity” value is listed as 30 Fluorescent Units and the “catalytic activity (in words)” value is on record as “did not possess activity above background levels”.

The values above are taken from US20070032403A1, “Crystal structure of the ITK kinase domain” (Boehringer Ingelheim Pharmaceuticals, Inc., priority 2003, published 2007).
